Test results as given in patent US20140328838A1 (NVIP, published 2014).
Blank lines part the entries; values can stand above or below the binder they belong to.

Experiments:
[1] = target: T1, human TNF (human, UniProt P01375 77-233); experiment: ELISA (FIG. 16 panel B)
T1 construct: also called huTNF

[2] = target: T2, canine TNF alpha (canine, UniProt P51742 77-233); experiment: ELISA (FIG. 16 panel C)
T2 construct: Coated at 5 ug/ml in the ELISA; Used at 1 ng/mL in the reporter assay

[3] = target: T2, canine TNF alpha; experiment: ELISA, canine TNF alpha coated; antibody 5 to 0.05 µg/ml (FIG. 14B)

T1 sequence (P01375 77-233 limits assumed): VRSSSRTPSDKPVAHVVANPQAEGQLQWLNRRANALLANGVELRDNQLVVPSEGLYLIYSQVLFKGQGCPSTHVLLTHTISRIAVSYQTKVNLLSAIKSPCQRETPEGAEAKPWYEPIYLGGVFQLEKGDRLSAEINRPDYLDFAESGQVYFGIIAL
T2 sequence (P51742 77-233 limits assumed): as the sequence (P01375 77-233 limits assumed) above, with R2K, Q21E, N30S, R44T, V49I, E53D, I83F, A109T, R138L, D140N counted along it

- binding result [1]: binds
- binding result [2]: no binding
B1: caninised anti-huTNF MAb 148 (antibody, V domains shown)
VH: EVQLVESGGGVVQPGGSLRLSCAASGFIFSSYAMRWVRQAPGKGLEWVAFMSYDGSNKKYADSVKGRFTISRDNSKNTLYLQMNSLRAEDTAVYYCARDRGIAAGGNYYYYGMDVWGQGTSVTVSS
VL: EIVMTQSPASLSLSPGEKATISCRASQSVYSYLAWYQQKPGQAPRLLIYDASNRATGVPSRFSGSGSGTDFTLTISSLEPEDVAVYYCQQPSNWPPFTFGPGTKVDIKR
notes: Expressed in CHO cells and purified by Protein A chromatography

- binding result [1]: binds
- binding result [3]: binds
B2: caninised anti-TNF monoclonal antibody based on D2E7 (ca-HCB+ca-kLC) (antibody, V domains shown)
VH: not shown
VL: DIVMTQSPASLSLSQEEKVTITCRASQGIRNYLAWYQQKPGQAPKLLIYAASTLQSGVPSRFSGSGSGTDFTLTISSLEPEDVAVYYCQRYNRAPYTFGQGTKVEIKR
notes: also called caninised (Ca) D2E7 based MAb; canine PETised D2E7
